Experimental findings from paper PMC7611088 are described below.

The assay addresses human β3 homopentameric GABAAR construct (K279T, M3-M4 loop replaced by SQPARAA) (human) (UniProt P28472). Nature of the assay: cryo-EM structure.

By stoichiometry N is commonly meant the number of molecules, sites or subunits per partner or assembly.

For “human β3 homopentameric GABAAR construct (K279T, M3-M4 loop replaced by SQPARAA) (from UniProt P28472 26-473) (receptor)”, the stoichiometry N was found to be 5.
